# Results published in patent US20200109196A1 (MOGAM INSTITUTE FOR BIOMEDICAL RESEARCH, published 2020).
# T1: recombinant human CEACAM-3/CD66d protein (Sino Biological; Cat. No. 11933-H08H) (human, UniProt P40198 35-155)
# T1 construct: Bought protein; also called HCCM3
# T1 sequence (looked up): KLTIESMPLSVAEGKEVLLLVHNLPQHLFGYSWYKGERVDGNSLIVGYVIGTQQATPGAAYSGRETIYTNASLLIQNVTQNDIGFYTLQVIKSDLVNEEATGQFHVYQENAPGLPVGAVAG
# T2: human CEACAM1 expressed on the cell surface (CEACAM1-Jurkat T cells); HEK293 cells transfected with human … (human, UniProt P13688 35-526)
# T2 construct: whole, on cells; also called CCM1
# T2 sequence (looked up): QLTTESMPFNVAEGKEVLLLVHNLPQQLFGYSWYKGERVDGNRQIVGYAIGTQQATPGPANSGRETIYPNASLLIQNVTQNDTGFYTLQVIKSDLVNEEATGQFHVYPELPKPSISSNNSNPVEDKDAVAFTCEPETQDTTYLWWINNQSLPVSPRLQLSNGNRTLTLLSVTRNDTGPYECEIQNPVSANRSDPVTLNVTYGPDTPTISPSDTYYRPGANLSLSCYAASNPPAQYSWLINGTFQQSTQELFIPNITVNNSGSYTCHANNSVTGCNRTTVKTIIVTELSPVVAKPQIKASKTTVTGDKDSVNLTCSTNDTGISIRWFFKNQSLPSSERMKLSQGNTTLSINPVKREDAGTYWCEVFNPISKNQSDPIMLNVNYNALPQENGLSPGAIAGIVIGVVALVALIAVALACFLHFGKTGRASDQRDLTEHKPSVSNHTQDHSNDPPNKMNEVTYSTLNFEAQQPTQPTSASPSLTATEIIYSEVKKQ
# Experiments:
# [1] = target: T1, recombinant human CEACAM-3/CD66d …; experiment: ELISA on coated antigen (0.25 µg/ml), HRP anti-human IgG Fc, OD450
# From the text: All of the recombinant human CEACAM-1/CD66a protein (R&D systems; Cat No. 2244-CM, HCCM1), recombinant human CEACAM-5/CD66e protein (R&D systems; Cat. No. 4128-CM, HCCM5), recombinant human CEACAM-6/CD66c protein (R&D systems; Cat. No. 3934-CM, HCCM6), recombinant human CEACAM-3/CD66d protein (Sino Biological; Cat. No. 11933-H08H, HCCM3), human B7-H5/Gi24/VISTA protein (Sino Biological; Cat. No. 13482-H08H, HVISTA), recombinant human CEACAM-1/CD66a protein Bulk (R&D systems; Cat. No. 2244-CM, HCCM1 (bulk)), recombinant human CEACAM1-N domain-Kappa protein (Mogam, in-house production, HCCM1-N domain-kappa), and BSA protein (2.5 μg each) were dissolved in 10 ml of PBS, respectively, and dispensed into a 96-well plate at 100 μl/well, which was incubated at 4° C. overnight. Thereafter, each well was treated with 300 μl of 1% (v/v) bovine serum albumin, and incubated at 37° C. for 1 hour.
# The diluted antibodies were dispensed into each well coated with each protein at 100 μl/well, and incubated at 37° C. for 1 hour. Then, each well was washed 3 times with a washing buffer prepared by diluting 10 μl of Tween 20 (Sigma-Aldrich; Cat. No. P9146) in 990 μl of PBS. Thereafter, 2 μl of HRP-conjugated human anti-IgG-Fc antibody (anti-human IgG Fc, Sigma Cat. No. A0170) was diluted in 10 ml of PBS, added to the wells at 100 μl/well, and incubated for 1 hour.
# After completion of the reaction, the wells were washed three times with the washing buffer, and 100 μl of TMB solution was added to each well to induce color development. Then, 100 μl of 2 M H₂SO₄ was added to each well to stop the reaction, and the absorbance was measured at a wavelength of 450 nm.
# [2] = target: T2, human CEACAM1 expressed on the cell …; experiment: flow cytometry on CEACAM1-Jurkat T cells, antibody at 0.2 µg/ml
# Method: (§1) The CEACAM1-Jurkat T cells prepared above were treated with Fc block solution and incubated for 15 minutes. […] Herein, it is noted that the cell numbers were adjusted to 1×10⁵. The cells incubated with the antibodies were repeatedly subjected to the washing procedure of resuspending the cells in a FACS buffer and centrifuging the solution at 1,500 rpm.
# (§2) PE-conjugated goat anti-human F(ab)₂; (Sigma; Cat. No. P8047)) was diluted in the FACS buffer at a volume ratio of 1:200, and then added to the cells at 100 μl/well. Cells were resuspended well and incubated at 4° C. for 30 minutes in a dark condition.
# (§3) The cells incubated with the fixation buffer were repeatedly subjected to the washing procedure of resuspending the cells in a FACS buffer, centrifuging the solution at 1,500 rpm, and discarding the supernatant. The washed cells were resuspended in 200 μl of a FACS buffer, and the mean fluorescence intensities (MFIs) of the PE-labeled cells were monitored by a FACS LSR-Fortessa. All FACS analyses were conducted using the FlowJo software.
# [3] = target: T2, human CEACAM1 expressed on the cell …; experiment: flow cytometry on CEACAM1-Jurkat T cells; maximal MFI told of the 'other clones' as a group
# Method: as §1, §2, §3
binder,measurement,setting,value
"C18 (antibody, human IgG4 S228P, lambda, V domains shown) VH: EVQLLESGGGLVQPGGSLRLSCAASGFTFSNYDMSWVRQAPGKGLEWVSGISHSSGSKYYADSVKGRFTISRDNSKNTLYLQMNSLRAEDTAVYYCARDPLPCLIPKCSYYYAMDVWGQGTLVTVSS VL: QSVLTQPPSAPGTPGQRVTISCSGSSSNIGSNAVTWYQQLPGTAPKLLIYADSHRPSGVPDRFSGSKSGTSASLAISGLRSEDEADYYCGSWDDSLNAYVFGGGTKLTVLG",binding result,[1],no binding (tested: 3 µg/ml (single concentration))
"4R9 (antibody, human IgG4 S228P, lambda, V domains shown, also called C25-derived clone 4R9) VH: EVQLLESGGGLVQPGGSLRLSCAASGFTFSNYAMSWVRQAPGKGLEWVSVISHGGGSIYYADSVKGRLTISRDNSKNTLYLQMNSLRAEDTAVYYCARDPTKGYAPTFDYWGQGTLVTVSS VL: QSVLTQPPSASGTPGQRVTISCSGSSSNIGNNYVSWYQQLPGTAPKLLIYADSRRPSGVPDRFSGSKSGTSASLAISGLRSEDEADYYCGAWDLSLNGYVFGGGTKLTVLG",percent of maximal binding level,[2],80%
same,MFI,[3],8000
"C17 (antibody, human IgG4 S228P, lambda, V domains shown) VH: EVQLLESGGGLVQPGGSLRLSCAASGFTFSDYSMSWVRQAPGKGLEWVSVIYPDDGNTYYADSVKGRFTISRDNSKNTLYLQMNSLRAEDTAVYYCARGSIWWLSLIPSSYNAMDVWGQGTLVAVSS VL: QSVLTQPPSASGTPGQRVTISCSGSSSNIGNNAVNWYQQLPGTAPKLLIYANSHRPSGVPDRFSGSKSGTSASLAISGLRSEDEADYYCGAWDASLNGYVFGGGTKLTVLG",binding result,[1],no binding (tested: 3 µg/ml (single concentration))
"4R9_H2-2 (antibody, human IgG4 S228P, lambda, V domains shown, also called C25-derived clone 4R9_H2-2) VH: EVQLLESGGGLVQPGGSLRLSCAASGFTFSNYAMSWVRQAPGKGLEWVSVISHGGGSIYYADSVKGRLTISRDNSKNTLYLQMNSLRAEDTAVYYCARDPTKGYAPLFDYWGQGTLVTVSS VL: QSVLTQPPSASGTPGQRVTISCSGSSSNIGNNYVSWYQQLPGTAPKLLIYADSRRPSGVPDRFSGSKSGTSASLAISGLRSEDEADYYCGAWDLSLNGYVFGGGTKLTVLG",percent of maximal binding level,[2],80%
same,MFI,[3],8000
"4R26 (antibody, human IgG4 S228P, lambda, V domains shown, also called C25-derived clone 4R26) VH: EVQLLESGGGLVQPGGSLRLSCAASGFTFSNYAMSWVRQAPGKGLEWVSVISHGGGSIYYADSVKGRLTISRDNSKNTLYLQMNSLRAEDTAVYYCARDPTKGYAPTFDYWGQGTLVTVSS VL: QSVLTQPPSASGTPGQRVTISCSGSSSNIGNNYVSWYQQLPGTAPKLLIYADSKRLSGVPDRFSGSKSGTSASLAISGLRSEDEADYYCGAWDGRLNGYVFGGGTKLTVLG",percent of maximal binding level,[2],80%
same,MFI,[3],8000
"C15 (antibody, human IgG4 S228P, lambda, V domains shown) VH: EVQLLESGGGLVQPGGSLRLSCAASGFTFSSYSMSWVRQAPGKGLEWVSSISPNGGNKYYADSVKGRFTISRDNSKNTLYLQMNSLGAEDTAVYYCAKDPYNIYQPLFDYWGQGTLVTVSS VL: QSVLTQPLSASGTPGQRVTISCSGSSSNIGNNYVNWYQQLPGTAPKLLIYANSNRPSGVPDRFSGSKSGTSASLAISGLRSEEEADYYCGTWDASLSAYVFGGGTKLTVLG",binding result,[1],no binding (tested: 3 µg/ml (single concentration))
